Data reported in patent US9012217B2, “Benzimidazole compounds differentiate a mammalian stem cell into mesodermal or cardiomyocyte cells” (Burnham Institute for Medical Research, priority 2008, dated 2015).

Legend:
[1] = test system: CGR8 mESCs stably transfected with eGFP under control of the alpha myosin heavy chain (aMHC) promoter; assay: cardiomyocyte screening assay (aMHC-eGFP mESC differentiation, imaging); type: cell-based, mouse; conditions: structure IIA; activity relative to compound 28 = 100%
Method: The primary screen is conducted with CGR8 mESCs stably transfected with eGFP under control of the alpha myosin heavy chain (aMHC) promoter (Takahashi, et al., Circulation, 107(14):1912, 2003). The bioassay is run essentially as described (Bushway et al., Methods Enzymol, 414:300, 2006). Briefly, cells were seeded onto Greiner 384 well microclear bottom microtiter plates in ½ well volume at a density of ˜229 cells/mm2. […]
The optimal time to stop the differentiation is empirically determined to be at day 9 of differentiation, when cardiomyocytes appear in positive control cultures that have higher density cells or culture the cells in embryoid body (not monolayer) culture. […] Image quantification is done using a simple image subtraction routine that subtracted the red channel images from the green (eGFP) channel images to remove background signal from the eGFP images. […]
Follow-up confirmations and testing of hits for SAR were performed on the Hamilton STAR fluid handler with integrated Kendro Cytomat plate hotel and Kendro Cytomat plate incubators using the Hamilton STAR liquid handler robot. […] Image quantification is performed on captured TIFF images using the Developer Toolbox (GE/Amersham) with custom algorithms. […]

mESC = assay: serum-free mESC cardiac differentiation assay (day 2 to day 4 exposure); type: cell-based, mouse; conditions: added alone, day 2 to day 4, serum free
Method: To define the point of action in more detail, a more focused assay is designed to probe the activities of the compounds between days 2-4 of differentiation. Of note is that the original assay is performed in the presence of serum, which activates many pathways that obscure the targets of the small molecules. Since serum activates many pathways and many genes, its presence confounds analysis of downstream targets. Thus, a serum-free mESC cardiac differentiation assay is set up to more precisely validate the activity of the compounds and determine if they acted independently or synergized with a known inducer. The refined assay, diagrammed in FIG. 4, tested the ability of the small molecules to stimulate mesodermal differentiation from day 2 to day 4. Differentiation is initiated by aggregating mESC into embryoid bodies (EBs) in serum free conditions. Day 2 EBs were dispersed in the presence of growth factors or small molecules to allow maximal exposure. Cells were allowed to re-aggregate into EBs until day 4 when they were dispersed and plated in conducive conditions for cardiac differentiation to day 9, at which point eGFP is imaged and quantified by the algorithm described above.
FIG. 5 summarizes experiments showing synergy with Activin/Nodal signaling.

Molecule	Activity [1]	cardiogenesis (cardiomyocytes at day 9) (mESC)
COc1nnc(Nc2ccc3c(c2)ncn3C2CC2)c2ccccc12 [Compound 104]	INACTIVE	–
Activin A (protein, UniProt P08476 311-426, looked up, "an inducer of anterior mesoderm and endoderm") Inhibin beta A chain: GLECDGKVNICCKKQFFVSFKDIGWNDWIIAPSGYHANYCEGECPSHIAGTSGSSLSFHSTVINHYRMRGHSPFANLKSCCVPTKLRPMSMLYYDDGQNIIKKDIQNMIVEECGCS	–	efficient cardiogenesis
BMP4 (protein, UniProt P12644 293-408, looked up, "posteriorizing growth factors such as BMP4") Bone morphogenetic protein 4: SPKHHSQRARKKNKNCRRHSLYVDFSDVGWNDWIVAPPGYQAFYCHGDCPFPLADHLNSTNHAIVQTLVNSVNSSIPKACCVPTELSAISMLYLDEYDKVVLKNYQEMVVEGCGCR	–	does not
